EP4628095A1 (Xiamen University, dated 2025)

How the values were obtained:
[1] = target: T1, P2-2C-RBD (mammalian cell expression system); assay: SPR (Biacore 8K), HEV-p239 coupled to CM5 chip (Fig. 10B)
T1 construct: also called VHH-RBD

[2] = target: T2, P1-5B-RBD (mammalian cell expression system); assay: as above
T2 construct: also called VHH-RBD

[3] = target: T3, P2-3A-RBD (mammalian cell expression system); assay: as above
T3 construct: also called VHH-RBD

[4] = target: T4, P2-3E-RBD (mammalian cell expression system); assay: as above
T4 construct: also called VHH-RBD

[5] = target: T5, P2-5C-RBD (mammalian cell expression system); assay: as above
T5 construct: also called VHH-RBD

[6] = target: T6, P2-3A-RBD (insect cell expression system); assay: SPR (Biacore 8K), HEV-p239 coupled to CM5 chip (Fig. 10A)
T6 construct: also called VHH-RBD

[7] = target: T7, P2-3D-RBD (insect cell expression system); assay: as above
T7 construct: also called VHH-RBD

[8] = target: T8, P1-5B-RBD (insect cell expression system); assay: as above
T8 construct: also called VHH-RBD; P1-5B-RBD fusion protein

[9] = target: T9, P2-3E-RBD (insect cell expression system); assay: as above
T9 construct: also called VHH-RBD

Measured: binding result

B1: HEV-p239 protein (other)
chain: IALTLFNLADTLLGGLPTELISSAGGQLFYSRPVVSANGEPTVKLYTSVENAQQDKGIAIPHDIDLGESRVVIQDYDNQHEQDRPTPSPAPSRPFSVLRANDVLWLSLTAAEYDQSTYGSSTGPVYVSDSVTLVNVATGAQAVARSLDWTKVTLDGRPLSTIQQYSKTFFVLPLRGKLSFWEAGTTKAGYPYNYNTTASDQLLVENAAGHRVAISTYTTSLGAGPVSISAVAVLAPHSV
notes: also called HEV-p239 particles; HEV particles
binds: all assays above
